Measurements published in the DeepSol protein solubility set.

Assay: soluble on expression in E. coli; label from the status in PepcDB or PDB records

| Sequence | soluble on expression in E. coli |
| --- | --- |
| RGNLGQSQKVLIEFVSANPTGPLHVGHGRGAAFGATLGNVLKAAGYDVTLEYYVNDAGRQMNILAVSVWLRYLELAGEPIVFPANGYKGQYVYEIAQEIWSEQGNQFVHPWISVVENLPADEPEGGDKETYIDAIIARAQSLLGKDGFANFHQHALKTVLDDIKDDLQAFGVRFDSWFSEQSLFEDGSIEKGIQALKDRGHTYEREGALWFRATDFGDEKDRVLVRANGQTTYFASDVAYHWNKYDRGFDRVIDIFGADHHGYVTRIKTAVKALGHDESALDVILVQFAILYRGGDRVQMSTRSGSFVTLRELREEVGNDAARYFYVARKPEQHMDFDLDLAKSESSDNPVYYIQYAHARICSVLRQLKERGLKWDKDMGL | not soluble |
| RGSHHHHHHGSMGDNIVLYYFDARGKAELIRLIFAYLGIEYTDKRFGVNGDAFVEFKNFKKEKDTPFEQVPILQIGDLILAQSQAIVRYLSKKYNICGESELNEFYADMIFCGVQDIHYKFNNTNLFKQNETTFLNEDLPKWSGYFEKLLKKNHTNNNNDKYYFVGNNLTYADLAVFNLYDDIETKYPSSLKNFPLLKAHNEFISNLPNIKNYITNRKESVY | soluble |
| RIAISNSNRTRSVPSLTTIWSISPTPNCSIYETQDANLFLCLTKNGAHVLGTITIKGLKGALREMHDNALSLKLPFDNQGNLLNCALESSTWRYQETNAVASNALTFMPNSTVYPRNKTAHPGNMLIQISPNITFSVVYNEINSGYAFTFKWSAEPGKPFHPPTAVFCYITEQGSHHHHHH | soluble |
| RIEDIETKNIQYEERVSVQADLGSQTLHVRGLIDSGNQLYDPLTKTPVMIIYIDKLEPIFGTAETMIIRNTDPLEAIEQLDDSFRFLDKMRLIPYRGVGQQNQFLLCVKPDHVTIMTKEEMISADKCLIGISTTKLSADGEFDAIIHPKMLSGKAVKHVS | soluble |
| RNFKMIDNLSKVYGVELGYASRIKLLRAVFVNMAAAGASELAIDAGMDLMSMDLAGKVSARAGQGLGVGILTARLGLKAMALLRPLPWYPDRQVKLGTIRKAVVAKVASITMKP | not soluble |
| RRIGKVNLRHNRGFLTPELKRNFLRYTLFYVVASIGSKLSSRLDLFMVSSLDKGGLDSGGIFSIAFYMVAVVEIPSRSLLSVSSPLMADAMKRNDLVKADELFKRVSLHQ | not soluble |
| RRLIRLSDKTIAKSLNTSKFGGDELRRIGFHIRFHRAGALFARCWLLVEGETEVWLFNELARQCGYDLAAEGVQIVEFAQSGLRSLIKVAKEFGIDWHVVTDGDPAGKKYAHTVRAQLGHDQERHRLTELPDRDIEHFLYNHGFELFFKDMIKVPHDHPIPAKKVVNRVLKKHAKPDLALAIVSHCEEKGMECIPVLLRWTLKRIVTMASGNT | not soluble |
| RSGVLITDKPKKKDKKEEPAALQTTVQSMLISRPRELEAEVVRFQNNREKWIAFVGLKDGRPYEIFTGIADDDEGIMVPKSVTHGKIIKNRDENGERHYDFQFCNKKGFKVTIEGLDSKFNPEYWNYAKLISGVLRYGMPIEQVVHLVQGMSLNDESINTWKNGVERALKRYLPNGTTLSGQVCPSCGQETLVYQEGCLLCTSCGASKCG | not soluble |
| RSTMKYIRTLSAEIGILEGGNLDYRITVTGSDEMAVLAKGLDSMRESIRDKISQEAELIRLNQSMITGLSHDLRTPLTALLIYTEILKNEIDADRKQMQKWVLKIDEKAHQIKDMADCILNYSLLKKAAGPTALRQEPFRSVFYDSLSELCVCLEQKGFEVRPSLAWEDREICADSKYITRILDNICSNIIKYASCGDPIRIESFYQTDGCGLVFENKKSANQTQAESTGIGVRNIREMMEEMGGCCEAEETSEDYRIRLTFACSPAV | not soluble |
| RTNQAGLELIGNAEGCRRDPYMCPAGVWTDGIGNTHGVTPGVRKTDQQIAADWEKNILIAERCINQHFRGKDMPDNAFSAMTSAAFNMGCNSLRTYYSKARGMRVETSIHKWAQKGEWVNMCNHLPDFVNSNGVPLRGLKIRREKERQLCLTGLVNEHHHHHH | soluble |
| RYHEFLGHFMNQFTSFGVAGAHGKTSTTGLLSHSMKNITDTSYLIGDGTGRGSANAQYFVFEADEYERHFMPYHPAYSIITNIDFDHPDYFTSIDDVFSAFDDYAKQVQKGLFVYGEDSNLRKITSNAPIYYYGFEENDDFMATDIIRTTTGSNFKVKHDGQIIGEFHVPAYGRHNILNATAVIANLYVAGFDMALVAEHLKTFSGV | not soluble |
| RYTNILVPVDSSDAAQAAFTEAVNIAQRHQANLTALYVVDDSAYHTPALDPVLSELLDAEAAHAKDAMRQRQQFVATTSAPNLKTEISYGIPKHTIEDYAKQHPEIDLIVLGATGTNSPHRVAVGSTTSYVVDHAPCNVIVIR | soluble |
| SAAAALRDQLTALLSSMFSQGLVDEQFQQLQMLQDEGGTPGFVSEVVTLFCDDADRIINEIATLLEQPVVNFDKVDAYVHQLKGSSASVGAQKVKFTCMQFRQFCQDKSRDGCLMALAVVRNDFYDLRNKFQTMLQLEQQIQAYDPKQQ | soluble |
| SAAETRNVAGAEAPPPQKRYYRQRAHSNPMADHTLRYPVKPEEMDWSELYPEFFAPLTQNQSHDDPKDKKEKRAQAQVEFADIGCGYGGLLVELSPLFPDTLILGLEIRVKVSDYVQDRIRALRAAPAGGFQNIACLRSNAMKHLPNFFYKGQLTKMFFLFPDPHFKRTKHKWRIISPTLLAEYAYVLRVGGLVYTITDVLELHDWMCTHFEEHPLFERVPLEDLSEDPVVGHLGTSTEEGKKVLRNGGKNFPAIFRRIQDPVLQAVTSQTSLPGH | soluble |
| SAAIYSLYIINKSGGLIFYKDCGTKGRMDTNDSLRVASLWHSMHAISQQLSPVNGCSGIELLEADTFDLHCFQSLPGTKFFVVCEPGTPHMESLLRYIYELYTDYVLKNPFYEIEMPIRCELFDINLTQAVQSDRVALLGR | soluble |
| SAALTDVQRLQSRVEELERWVYGPGGTRGSRKVADGLVKVQVALGNIASKRERVKILYKKIEDLIKYLDPEYIDRIAIPEASKLQFILAEEQFILSQVALLEQVNALVPVLDSASIKAVPEHAARLQRLAQIHIQQQDQCVAITEESKALLEGYNKTTMLLSKQFVQWDELLCQLEAAKQVKPAEE | soluble |
| SAASGEEDMSELSPAAAPNLDWYEKPEETHAPEVDLETVIPPAQEPSNPAEPFCPRDLVPVVFPGPVSQEDCCQFTCELLKHILYQRHQLPLPYEQLKHFYRKAPQAEDTARKKAWLATEARNRKCQQALAELESVLSHLRDFFARTLVPQVLILLGGNALSPKEFYELDLSRLAPFGVDQGLNTAACLRRLFRAIFLADPFSELQTPPLMGTIVMVQGHRDCGEDWFQPKLNYRVPSRGHKLTVTLSCGRPSVPAMASEDYIWFQAPVTLKGFHE | soluble |
| SADPGPDPESESESVFPREVGLFADSYSEKSQFCFCGHVLTITQNFGSRLGVAARVWDAALSLCNYFESQNVDFRGKKVIELGAGTGIVGILAALQGGDVTITDLPLALEQIQGNVQANVPAGGQAQVRALSWGIDHHVFPANYDLVLGADIVYLEPTFPLLLGTLQHLCRPHGTIYLASKMRKEHGTESFFQHLLPQHFQLELAQRDEDENVNIYRARHREPRPA | not soluble |
| SAEFRVRVSTGEAFGAGTWDKVSVSIVGTRGESPPLPLDNLGKEFTAGAEEDFQVTLPEDVGRVLLLRVHKAPPVLPLLGPLAPDAWFCRWFQLTPPRGGHLLFPCYQWLEGAGTLVLQEGTAKVSWADHHPVLQQQRQEELQARQEMYQWKAYNPGWPHCLDEKTVEDLELNIKYSTAKNANFYLQAGSAFAEMKIKGLLDRKGLWRSLNEMKRIFNFRRTPAAEHAFEHWQEDAFFASQFLNGLNPVLIRRCHYLPKNFPVTDAMVASVLGPGTSLQAELEKGSLFLVDHGILSGIQTNVINGKPQFSAAPMTLLYQSPGCGPLLPLAIQLSQTPGPNSPIFLPTDDKWDWLLAKTWVRNAEFSFHEALTHLLHSHLLPEVFTLATLRQLPHCHPLFKLLIPHTRYTLHINTLARELLIVPGQVVDRSTGIGIEGFSELIQRNMKQLNYSLLCLPEDIRTRGVEDIPGYYYRDDGMQIWGAVEHFVSEIIGIYYPSDESVQDDRELQAWVREIFSKGFLNQESSGIPSSLETREALVQYVTMVIFTCSAKHAAVSAGQFDSCAWMPNLPPSMQLPPPTSKGLATCEGFIATLPPVNATCDVILALWLLSKEPGDQRPLGTYPDEHFTEEAPRRSIATFQSRLAQISRGIQERNRGLVLPYTYLDPPLIENSVSI | soluble |
| SAEGEEEGGDVLISVGHANVLGYTLREFLQLLQHITIGTVLQIKVYRDFINIPEEWQEIYDLIPEAKFPVTSTPKKIELAKDESFTSSDDNENVDLDKRLQYYRYPWSTVHHPARRPISISRDWHGYKKKNHTISVGKDINCDVMIHRDDKKEVRAPSPYWIMVKQDNESSSSSTSSTSDAFWLEDCAQVEEGKAQLVSKVG | soluble |
| SAEHVLTMLNEHEVKFVDLRFTDTKGKEQHVTIPAHQVNAEFFEEGKMFDGSSIGGWKGINESDMVLMPDASTAVIDPFFADSTLIIRCDILEPGTLQGYDRDPRSIAKRAEDYLRATGIADTVLFGPEPEFFLFDDIRFGASISGSHVAIDDIEGAWNSSTKYEGGNKGHRPGVKGGYFPVPPVDSAQDIRSEMCLVMEQMGLVVEAHHHEVATAGQNEVATRFNTMTKKADEIQIYKYVVHNVAHRFGKTATFMPKPMFGDNGSGMHCHMSLAKNGTNLFSGDKYAGLSEQALYYIGGVIKHAKAINALANPTTNSYKRLVPGYEAPVMLAYSARNRSASIRIPVVASPKARRIEVRFPDPAANPYLCFAALLMAGLDGIKNKIHPGEPMDKNLYDLPPEEAKEIPQVAGSLEEALNALDLDREFLKAGGVFTDEAIDAYIALRREEDDRVRMTPHPVEFELYYSV | soluble |
| SAETEALSKLREDFRMQNKSVFILGASGETGRVLLKEILEQGLFSKVTLIGRRKLTFDEEAYKNVNQEVVDFEKLDDYASAFQGHDVGFCCLGTTRGKAGAEGFVRVDRDYVLKSAELAKAGGCKHFNLLSSKGADKSSNFLYLQVKGEVEAKVEELKFDRYSVFRPGVLLCDRQESRPGEWLVRKFFGSLPDSWARGHSVPVVTVVRAMLNNVVRPRDKQMELLENKAIHDLGKAHGSLKP | soluble |
| SAFQAAAARLGAPVSHDFCAISLSDLMTPWEVIEKRIEAAASADFVTAVYNPRSRDRYWQIHRFRELFLRHRSPSTPVGIVRNVTRKDESVVLTTLGEFDPDSLDMFTMMLVGNSTTF | not soluble |
| SAMLSSTMKIEALLTEKHINLNLGSSSKDEVIDTLIAMVADHDKVRDLKQLAEDVRKREREMSTGIGKNIGLPHAKTSAVTEPVLALATLSNEVDFESIDNQPVKIVFLLATPETMLAEHLKLLGRITRLAGRDDVRRKLIDAATPADVLELFKQEERDLPQI | not soluble |
| SAPAPPSGWSQVFLDDFDGAAGSSVNTANWQFDTGTSYPGGAGNWGTGEVESMTSSTSNVSLDGNGDLLITPRRDASGNWTSGRIETTRTDFQPPAGGKLRVEARLQMPNVTGDAAAGYWPAFWMLGAPFRGNYQNWPGVGELDIMENVQGLNKTWATMHCGTSPGGPCNETSGIGNSTACPNTTCQSGFHTYTMEWDRSVSPEAIRFSVDGVTYQTVTANQMDAATWTNATNHGFFVILNVAMGGGFPGAFGGGPTGATEPGHPMVVDYVQVTSLSPGL | soluble |
| SAQDLRMSYCYAKFEGGKCSSPKSRNHSKQECCCALKGEGWGDPCELCPTEPDEAFRQICPYGSGIIVGPDDSA | soluble |
